According to publication PMC13393422, “Cross-regulation of amino acid synthesis and anaerobic electron transfer by MetR-mediated methionine signaling”:

T1: MetR (C-his-MetR) (Shewanella oneidensis MR-1, UniProt Q8EIM1 1-301)
T1 sequence: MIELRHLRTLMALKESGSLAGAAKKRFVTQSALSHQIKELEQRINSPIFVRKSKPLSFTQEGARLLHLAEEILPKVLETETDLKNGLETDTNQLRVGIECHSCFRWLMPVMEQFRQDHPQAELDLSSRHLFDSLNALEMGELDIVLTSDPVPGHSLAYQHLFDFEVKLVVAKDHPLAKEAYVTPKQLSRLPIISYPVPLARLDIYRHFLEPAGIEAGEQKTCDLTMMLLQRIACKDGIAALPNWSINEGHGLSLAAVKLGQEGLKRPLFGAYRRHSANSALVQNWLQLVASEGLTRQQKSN

B1: luxS probe (dsDNA)
DNA 1: GCATCTGACTGATATGAGATGATTTCATCTTAAGTTATC
DNA 2: GATAACTTAAGATGAAATCATCTCATATCAGTCAGATGC
B2: cymA probe (dsDNA)
DNA 1: GTATTAGCTGGAGTTGAAGTACTCTAACGCTCTGCTAAGC
DNA 2: GCTTAGCAGAGCGTTAGAGTACTTCAACTCCAGCTAATA
B3: metR probe (dsDNA)
DNA 1: GATTTCAAGCGCAACATGAGCGAAATTCACTTGGAGTGATC
DNA 2: GATCACTCCAAGTGAATTTCGCTCATGTTGCGCTTGAAATC
B4: glyA probe (dsDNA)
DNA 1: CTCAACTCGGCATTGAGGTGCATTCAAGTTAAAACTGTAG
DNA 2: CTACAGTTTTAACTTGAATGCACCTCAATGCCGAGTTGAG
B5: omcA probe (dsDNA)
DNA 1: CCACACATTAAATACGACTAATGAGATTTGTTCTTATTTG
DNA 2: CAAATAAGAACAAATCTCATTAGTCGTATTTAATGTGTGG
B6: omcA probe, unlabeled competitor (dsDNA)
DNA 1: B5 DNA 1
DNA 2: B5 DNA 2
B7: dmsE probe (dsDNA)
DNA 1: CTTATGGTGTTTTTGAGAATGATTTTCTTTTATTTGATTTC
DNA 2: GAAATCAAATAAAAGAAAATCATTCTCAAAAACACCATAAG
B8: omcA-m probe (dsDNA)
DNA 1: CCACACATTAAATACGACTAAGGGGATTTGGGGGTATTTG
DNA 2: CAAATACCCCCAAATCCCCTTAGTCGTATTTAATGTGTGG

Experiments:
[1] = molecular target: T1, MetR (C-his-MetR); assay: EMSA; 4 mM hCys; 500 ng MetR; 50 mM Tris-HCl pH 8.0, 0.5 mM EDTA, 2 mM MgSO4, 1 mM DTT, 100 ug/mL BSA, 10 ug/mL poly(dI-dC), 4 mM hCys, 20% glycerol, 1 nM Cy3 probe, 20 uL; 20 C 10 min; gel; details: protein: recombinant, tags: C-terminal His tag (pET-26b(+), NdeI/XhoI), chain copies: 4, label: 5'-Cy3 on strand 2
[2] = molecular target: T1, MetR (C-his-MetR); assay: EMSA; 4 mM hCys; 0-250 ng MetR (4B), 500 ng (4C); 50 mM Tris-HCl pH 8.0, 0.5 mM EDTA, 2 mM MgSO4, 1 mM DTT, 100 ug/mL BSA, 10 ug/mL poly(dI-dC), 4 mM hCys, 20% glycerol, 1 nM Cy3 probe, 20 uL; 20 C 10 min; gel; details: protein: recombinant; tags: C-terminal His tag (pET-26b(+), NdeI/XhoI); chain copies: 4; label: 5'-Cy3 on strand 2; blunt
[3] = molecular target: T1, MetR (C-his-MetR); assay: competition; 4 mM hCys; 5,000-fold excess over labeled omcA probe, shift disappeared; 50 mM Tris-HCl pH 8.0, 0.5 mM EDTA, 2 mM MgSO4, 1 mM DTT, 100 ug/mL BSA, 10 ug/mL poly(dI-dC), 4 mM hCys, 20% glycerol, 1 nM Cy3 probe, 20 uL; 20 C 10 min; gel; details: protein: recombinant; tags: C-terminal His tag (pET-26b(+), NdeI/XhoI); chain copies: 4; label: none; blunt

Row | Binder | binding result ([1]; blunt) | also measured
1 | B1 | binds | 
2 | B2 |  | binding result ([1]; 5' overhang 1 nt on strand 1 as printed (strand 2 is 39 nt; text says 40 bp)): binds
3 | B3 | binds | 
4 | B4 | binds | 
5 | B5 |  | binding result [2]: binds
6 | B6 |  | binding result [3]: binds
7 | B7 | binds | 
8 | B8 | no binding | 
